Entries after “also recorded” stand apart in the source; their conditions may differ. Like-named read-outs stand apart in the source and are kept apart here.
Columns and labels:
Cdc42 = assay: Rac1 and Cdc42 activity assay (pull-down); assay type: cell-based, human; conditions: A549 cells, GMI 4, 16 μg/ml 24 h, 10 ng/mL EGF 3 min
Description: (§1) A549 cells were seeded onto 100 mm plates and cultured to around 80% confluence. The cells were then treated with various doses of GMI (4, 16 μg/ml). […] A549 cells were pretreated with various concentrations of GMI for 24 h before being stimulated with 10 ng/mL EGF for 3 min. After that, cells were washed with cold PBS and lysated on the dish in RIPA buffer. Active GTP-bound Rac1 or Cdc42 was pulled down using the GST-PBD fusion protein of PAK1 immobilized on glutathione beads and active Rac1 and Cdc42 were detected with anti-Rac1 and anti-Cdc42 antibodies.
(§2) Active Rac1 and Cdc42 were determined by pull-down assay (Binker et al., 2009, Biochem Biophys Res Commun, 379, 445-450). Serum-starved A549 cells were or were not stimulated for 3 min with EGF and then collected in 800 μl of ice-cold lysis-buffer. Lysates were centrifuged to remove cellular debris. From each supernatant, 5 μl were taken out to measure protein content using Protein Assay Kit (Bio-Rad, Hercules, Calif.). Twenty μl were removed to determine total Rac1 in total lysate, and the remaining volume was used for the pull-down assay. Lysates containing equal amounts of proteins were then mixed with 15 μg of GST-PAK-PBD-beads (Pierce). Samples for total Rac1 and Cdc42 in total lysate and the pelleted beads were diluted in Laemmli sample-buffer and boiled. The proteins were separated using SDS-PAGE (12% gel). […]

Rac1 = Rac1 and Cdc42 activity assay (pull-down); assay type: cell-based, human; conditions: A549 cells, GMI 4, 16 μg/ml 24 h, 10 ng/mL EGF 3 min
Description: as §1, §2

HL-60(TB) = assay type: cell-based
K-562 = assay: NCI60 in vitro screening, Leukemia; assay type: cell-based
HOP-62 = assay type: cell-based
HT29 = assay: NCI60 in vitro screening, Colon Cancer; assay type: cell-based
KM12 = assay: NCI60 in vitro screening, Colon Cancer; assay type: cell-based
SW-620 = assay: NCI60 in vitro screening, Colon Cancer; assay type: cell-based
SF-295 = assay: NCI60 in vitro screening, CNS Cancer; assay type: cell-based
UACC-62 = assay: NCI60 in vitro screening, Melanoma; assay type: cell-based
OVCAR-4 = assay: NCI60 in vitro screening, Ovarian Cancer; assay type: cell-based
SK-OV-3 = assay: NCI60 in vitro screening, Ovarian Cancer; assay type: cell-based
RXF 393 = assay: NCI60 in vitro screening, Renal Cancer; assay type: cell-based
UO-31 = assay: NCI60 in vitro screening, Renal Cancer; assay type: cell-based
DU-145 = assay: NCI60 in vitro screening, Prostate Cancer; assay type: cell-based

B1: GMI: immunomodulatory protein from Ganoderma microsporum, amino acid sequence SEQ ID NO: 3, manufactured by Mycomagic Biotechnology Co., Ltd. (protein, listed as Ganoderma microsporum)
chain: MSDTALIFTLAWNVKQLAFDYTPNWGRGRPSSFIDTVTFPTVLTDKAYTYRVVVSGKDLGVRPSYAVESDGSQKINFLEYNSGYGIADTNTIQVYVIDPDTGNNFIVAQWN
- EGF-promoted Cdc42 activity (Cdc42): inhibits Cdc42 activation; also recorded: reduced EGF-promoted Cdc42 activity in a dose-dependent manner
- EGF-promoted Rac1 activity (Rac1): little effect on Rac1; also recorded: little reduction in Rac1 activity
- TGI (HL-60(TB)): >1.25E2
- Percent Growth (HL-60(TB); Log10 Concentration 0.1): 105%
- Percent Growth (HL-60(TB); Log10 Concentration 1.1): 105%
- Percent Growth (HL-60(TB); Log10 Concentration 2.1): 92%
- Percent Growth (HL-60(TB); Log10 Concentration −0.9): 99%
- Percent Growth (HL-60(TB); Log10 Concentration −1.9): 100%
- Growth Percent (HL-60(TB); one dose): 116.48%
- TGI (K-562; K-562): >1.25E2
- Percent Growth (K-562; K-562, Log10 Concentration 0.1): 101%
- Percent Growth (K-562; K-562, Log10 Concentration 1.1): 97%
- Percent Growth (K-562; K-562, Log10 Concentration 2.1): 90%
- Percent Growth (K-562; K-562, Log10 Concentration −0.9): 98%
- Percent Growth (K-562; K-562, Log10 Concentration −1.9): 96%
- Growth Percent (K-562; K-562, one dose): 125.37%
- TGI (HOP-62; HOP-62): 5.99E1
- Percent Growth (HOP-62; HOP-62, Log10 Concentration 0.1): 102%
- Percent Growth (HOP-62; HOP-62, Log10 Concentration 1.1): 73%
- Percent Growth (HOP-62; HOP-62, Log10 Concentration 2.1): −34%
- Percent Growth (HOP-62; HOP-62, Log10 Concentration −0.9): 102%
- Percent Growth (HOP-62; HOP-62, Log10 Concentration −1.9): 104%
- Growth Percent (HOP-62; HOP-62, one dose): 53.89%
- GI50 (HOP-62; HOP-62, in µg/mL): 2.03E1
- TGI (HT29; HT29): >1.25E2
- Percent Growth (HT29; HT29, Log10 Concentration 0.1): 98%
- Percent Growth (HT29; HT29, Log10 Concentration 1.1): 57%
- Percent Growth (HT29; HT29, Log10 Concentration 2.1): 22%
- Percent Growth (HT29; HT29, Log10 Concentration −0.9): 99%
- Percent Growth (HT29; HT29, Log10 Concentration −1.9): 100%
- Growth Percent (HT29; HT29, one dose): 28.36%
- GI50 (HT29; HT29, in µg/mL): 1.95E1
- TGI (KM12; KM12): >1.25E2
- Percent Growth (KM12; KM12, Log10 Concentration 0.1): 104%
- Percent Growth (KM12; KM12, Log10 Concentration 1.1): 89%
- Percent Growth (KM12; KM12, Log10 Concentration 2.1): 43%
- Percent Growth (KM12; KM12, Log10 Concentration −0.9): 96%
- Percent Growth (KM12; KM12, Log10 Concentration −1.9): 100%
- Growth Percent (KM12; KM12, one dose): 62.96%
- GI50 (KM12; KM12, in µg/mL): 8.92E1
- TGI (SW-620; SW-620): >1.25E2
- Percent Growth (SW-620; SW-620, Log10 Concentration 0.1): 102%
- Percent Growth (SW-620; SW-620, Log10 Concentration 1.1): 95%
- Percent Growth (SW-620; SW-620, Log10 Concentration 2.1): 53%
- Percent Growth (SW-620; SW-620, Log10 Concentration −0.9): 100%
- Percent Growth (SW-620; SW-620, Log10 Concentration −1.9): 102%
- Growth Percent (SW-620; SW-620, one dose): 87.57%
- TGI (SF-295; SF-295): >1.25E2
- Percent Growth (SF-295; SF-295, Log10 Concentration 0.1): 101%
- Percent Growth (SF-295; SF-295, Log10 Concentration 1.1): 93%
- Percent Growth (SF-295; SF-295, Log10 Concentration 2.1): 22%
- Percent Growth (SF-295; SF-295, Log10 Concentration −0.9): 100%
- Percent Growth (SF-295; SF-295, Log10 Concentration −1.9): 103%
- Growth Percent (SF-295; SF-295, one dose): 70.58%
- GI50 (SF-295; SF-295, in µg/mL): 5.07E1
- TGI (UACC-62; UACC-62): >1.25E2
- Percent Growth (UACC-62; UACC-62, Log10 Concentration 0.1): 99%
- Percent Growth (UACC-62; UACC-62, Log10 Concentration 1.1): 106%
- Percent Growth (UACC-62; UACC-62, Log10 Concentration 2.1): 68%
- Percent Growth (UACC-62; UACC-62, Log10 Concentration −0.9): 101%
- Percent Growth (UACC-62; UACC-62, Log10 Concentration −1.9): 105%
- Growth Percent (UACC-62; UACC-62, one dose): 115.96%
- TGI (OVCAR-4; OVCAR-4): >1.25E2
- Percent Growth (OVCAR-4; OVCAR-4, Log10 Concentration 0.1): 102%
- Percent Growth (OVCAR-4; OVCAR-4, Log10 Concentration 1.1): 107%
- Percent Growth (OVCAR-4; OVCAR-4, Log10 Concentration 2.1): 62%
- Percent Growth (OVCAR-4; OVCAR-4, Log10 Concentration −0.9): 102%
- Percent Growth (OVCAR-4; OVCAR-4, Log10 Concentration −1.9): 103%
- Growth Percent (OVCAR-4; OVCAR-4, one dose): 98.08%
- TGI (SK-OV-3; SK-OV-3): >1.25E2
- Percent Growth (SK-OV-3; SK-OV-3, Log10 Concentration 0.1): 107%
- Percent Growth (SK-OV-3; SK-OV-3, Log10 Concentration 1.1): 94%
- Percent Growth (SK-OV-3; SK-OV-3, Log10 Concentration 2.1): 55%
- Percent Growth (SK-OV-3; SK-OV-3, Log10 Concentration −0.9): 103%
- Percent Growth (SK-OV-3; SK-OV-3, Log10 Concentration −1.9): 103%
- Growth Percent (SK-OV-3; SK-OV-3, one dose): 89.18%
- TGI (RXF 393; RXF 393): 4.72E1
- Percent Growth (RXF 393; RXF 393, Log10 Concentration 0.1): 101%
- Percent Growth (RXF 393; RXF 393, Log10 Concentration 1.1): 76%
- Percent Growth (RXF 393; RXF 393, Log10 Concentration 2.1): −56%
- Percent Growth (RXF 393; RXF 393, Log10 Concentration −0.9): 101%
- Percent Growth (RXF 393; RXF 393, Log10 Concentration −1.9): 101%
- Growth Percent (RXF 393; RXF 393, one dose): 38.93%
- GI50 (RXF 393; RXF 393, in µg/mL): 1.97E1
- LC50 (RXF 393; RXF 393, in µg/mL): 1.13E2
- TGI (UO-31; UO-31): 2.65E1
- Percent Growth (UO-31; UO-31, Log10 Concentration 0.1): 119%
- Percent Growth (UO-31; UO-31, Log10 Concentration 1.1): 38%
- Percent Growth (UO-31; UO-31, Log10 Concentration 2.1): −77%
- Percent Growth (UO-31; UO-31, Log10 Concentration −0.9): 102%
- Percent Growth (UO-31; UO-31, Log10 Concentration −1.9): 97%
- Growth Percent (UO-31; UO-31, one dose): 14.01%
- GI50 (UO-31; UO-31, in µg/mL): 8.79E0
- LC50 (UO-31; UO-31, in µg/mL): 7.22E1
- TGI (DU-145; DU-145): >1.25E2
- Percent Growth (DU-145; DU-145, Log10 Concentration 0.1): 109%
- Percent Growth (DU-145; DU-145, Log10 Concentration 1.1): 71%
- Percent Growth (DU-145; DU-145, Log10 Concentration 2.1): 9%
- Percent Growth (DU-145; DU-145, Log10 Concentration −0.9): 99%
- Percent Growth (DU-145; DU-145, Log10 Concentration −1.9): 101%
- Growth Percent (DU-145; DU-145, one dose): 39.22%
- GI50 (DU-145; DU-145, in µg/mL): 2.76E1
